Consider two substances from doi:10.1101/2020.03.29.013490.

Assay [1] has as its target recombinant human angiotensin-converting enzyme-2 (ACE2) (human) (UniProt Q9BYF1). Put plainly: BLI.
The target in assay [2] is 2019-nCoV spike 1 protein (S1) (2019-nCoV (SARS-CoV-2)). Put plainly: BLI.

Chain of recombinant human angiotensin-converting enzyme-2 (ACE2) (human) (Q9BYF1 18-740): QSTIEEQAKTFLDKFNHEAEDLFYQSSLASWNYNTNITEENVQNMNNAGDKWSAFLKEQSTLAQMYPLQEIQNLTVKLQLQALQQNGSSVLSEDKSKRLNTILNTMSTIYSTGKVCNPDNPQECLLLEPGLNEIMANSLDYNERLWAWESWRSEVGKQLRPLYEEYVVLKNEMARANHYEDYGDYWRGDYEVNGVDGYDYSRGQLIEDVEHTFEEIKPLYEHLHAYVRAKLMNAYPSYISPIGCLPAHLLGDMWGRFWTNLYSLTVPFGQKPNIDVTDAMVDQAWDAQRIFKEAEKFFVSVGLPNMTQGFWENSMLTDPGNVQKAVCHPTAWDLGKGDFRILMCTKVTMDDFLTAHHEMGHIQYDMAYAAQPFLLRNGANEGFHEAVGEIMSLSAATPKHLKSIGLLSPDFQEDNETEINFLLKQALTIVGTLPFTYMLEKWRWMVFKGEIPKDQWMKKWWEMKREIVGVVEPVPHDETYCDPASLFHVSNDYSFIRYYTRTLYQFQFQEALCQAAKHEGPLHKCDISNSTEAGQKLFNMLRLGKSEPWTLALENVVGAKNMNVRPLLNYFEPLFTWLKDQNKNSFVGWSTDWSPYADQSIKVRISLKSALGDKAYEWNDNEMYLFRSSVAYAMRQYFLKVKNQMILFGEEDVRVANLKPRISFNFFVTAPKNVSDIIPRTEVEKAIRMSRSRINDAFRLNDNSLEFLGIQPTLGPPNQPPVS
Chain of human defensin 5 (HD5) (Q01523 63-94): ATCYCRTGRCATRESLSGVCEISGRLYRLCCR

With “2019-nCoV spike 1 protein (S1) (domain or fragment)”, the Kd in assay [1] is 2.68 nM. Turning to “human defensin 5 (HD5) (from UniProt Q01523 63-94) (peptide)”, the values for the Kd in assay [1] and in assay [2] were 39.3 nM and 82.8 nM, respectively.

What is called Kd is a measure of binding affinity in units of concentration.
